In assay [1] the target is human corticotropin-releasing factor 2a (CRF2a receptor) (human), Q13324. Nature of the assay: cell-based or functional assay.
The target of a further assay is T1, CRF1R receptor (UniProt P34998 24-415, limits assumed).
T1 sequence (looked up): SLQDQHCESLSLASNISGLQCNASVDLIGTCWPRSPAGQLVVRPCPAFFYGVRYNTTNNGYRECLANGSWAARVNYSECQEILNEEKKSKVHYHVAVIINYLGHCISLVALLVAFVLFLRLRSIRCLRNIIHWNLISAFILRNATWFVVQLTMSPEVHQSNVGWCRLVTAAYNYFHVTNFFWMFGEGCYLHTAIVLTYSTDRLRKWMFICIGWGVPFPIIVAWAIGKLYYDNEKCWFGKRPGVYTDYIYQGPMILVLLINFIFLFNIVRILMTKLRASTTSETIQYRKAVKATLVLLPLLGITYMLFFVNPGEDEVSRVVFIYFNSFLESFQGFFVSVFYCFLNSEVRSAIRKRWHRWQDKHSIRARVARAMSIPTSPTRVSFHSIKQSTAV
Nature of the assay: cell-based or functional assay.

*1 amine or outer side, *2 acyl side, *3 side chain or, on linkers, in order; H or OH if unused. Where no end group is shown, it is not given here. Side-chain parts run from the residue outwards. [ ]: non-standard residue; d: D form. The star is where a group is joined. C20 diacid = O=C(O)CCCCCCCCCCCCCCCCCCC(=O)*; C18 diacid = O=C(O)CCCCCCCCCCCCCCCCC(=O)*; C16 diacid = O=C(O)CCCCCCCCCCCCCCC(=O)*; γGlu = O=C(O)[C@H](CCC(=O)[*:2])N[*:1]; NMeI = CC[C@H](C)[C@H](NC)C(=O)O; AEEA = NCCOCCOCC(=O)O; Aib = CC(C)(N)C(=O)O Some results are limits rather than exact numbers.

Sequence of human corticotropin-releasing factor 2a (CRF2a receptor) (human), Q13324 (Q13324 20-411): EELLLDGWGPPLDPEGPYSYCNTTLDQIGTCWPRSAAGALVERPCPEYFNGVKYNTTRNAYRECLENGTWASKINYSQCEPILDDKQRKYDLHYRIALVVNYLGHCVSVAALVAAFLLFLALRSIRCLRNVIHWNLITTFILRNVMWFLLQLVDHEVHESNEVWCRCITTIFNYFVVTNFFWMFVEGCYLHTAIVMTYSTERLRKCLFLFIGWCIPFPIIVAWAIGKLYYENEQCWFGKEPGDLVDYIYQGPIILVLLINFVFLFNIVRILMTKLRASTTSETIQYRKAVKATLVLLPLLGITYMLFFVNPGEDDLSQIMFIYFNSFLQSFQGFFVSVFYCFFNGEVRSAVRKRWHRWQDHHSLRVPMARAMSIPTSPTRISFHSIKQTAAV

B1: SEQ ID NO 151 (peptide)
peptide: H-IVLSLD[dV]PIKLK([γGlu-C16 diacid])QILLKQERQKKQREQAEKNKQILEQV-NH2
SMILES: CC[C@H](C)[C@H](N)C(=O)N[C@H](C(=O)N[C@@H](CC(C)C)C(=O)N[C@@H](CO)C(=O)N[C@@H](CC(C)C)C(=O)N[C@@H](CC(=O)O)C(=O)N[C@@H](C(=O)N1CCC[C@H]1C(=O)N[C@H](C(=O)N[C@@H](CCCCN)C(=O)N[C@@H](CC(C)C)C(=O)N[C@@H](CCCCNC(=O)CC[C@H](NC(=O)CCCCCCCCCCCCCCC(=O)O)C(=O)O)C(=O)N[C@@H](CCC(N)=O)C(=O)N[C@H](C(=O)N[C@@H](CC(C)C)C(=O)N[C@@H](CC(C)C)C(=O)N[C@@H](CCCCN)C(=O)N[C@@H](CCC(N)=O)C(=O)N[C@@H](CCC(=O)O)C(=O)N[C@@H](CCCNC(=N)N)C(=O)N[C@@H](CCC(N)=O)C(=O)N[C@@H](CCCCN)C(=O)N[C@@H](CCCCN)C(=O)N[C@@H](CCC(N)=O)C(=O)N[C@@H](CCCNC(=N)N)C(=O)N[C@@H](CCC(=O)O)C(=O)N[C@@H](CCC(N)=O)C(=O)N[C@@H](C)C(=O)N[C@@H](CCC(=O)O)C(=O)N[C@@H](CCCCN)C(=O)N[C@@H](CC(N)=O)C(=O)N[C@@H](CCCCN)C(=O)N[C@@H](CCC(N)=O)C(=O)N[C@H](C(=O)N[C@@H](CC(C)C)C(=O)N[C@@H](CCC(=O)O)C(=O)N[C@@H](CCC(N)=O)C(=O)N[C@H](C(N)=O)C(C)C)[C@@H](C)CC)[C@@H](C)CC)[C@@H](C)CC)C(C)C)C(C)C
The molecule B1 had an EC50 [nM] (cAMP) in assay [1] of 0.12 nM.

B2: SEQ ID NO 242 (peptide)
peptide: [NMeI]VLSLD[dV]PIKLK([γGlu-γGlu-C20 diacid])KILLEQEKQKEQREQAETN[Aib]QILAQV-NH2
modifications: N-terminus assumed
SMILES: CC[C@H](C)[C@H](NC)C(=O)N[C@H](C(=O)N[C@@H](CC(C)C)C(=O)N[C@@H](CO)C(=O)N[C@@H](CC(C)C)C(=O)N[C@@H](CC(=O)O)C(=O)N[C@@H](C(=O)N1CCC[C@H]1C(=O)N[C@H](C(=O)N[C@@H](CCCCN)C(=O)N[C@@H](CC(C)C)C(=O)N[C@@H](CCCCNC(=O)CC[C@H](NC(=O)CC[C@H](NC(=O)CCCCCCCCCCCCCCCCCCC(=O)O)C(=O)O)C(=O)O)C(=O)N[C@@H](CCCCN)C(=O)N[C@H](C(=O)N[C@@H](CC(C)C)C(=O)N[C@@H](CC(C)C)C(=O)N[C@@H](CCC(=O)O)C(=O)N[C@@H](CCC(N)=O)C(=O)N[C@@H](CCC(=O)O)C(=O)N[C@@H](CCCCN)C(=O)N[C@@H](CCC(N)=O)C(=O)N[C@@H](CCCCN)C(=O)N[C@@H](CCC(=O)O)C(=O)N[C@@H](CCC(N)=O)C(=O)N[C@@H](CCCNC(=N)N)C(=O)N[C@@H](CCC(=O)O)C(=O)N[C@@H](CCC(N)=O)C(=O)N[C@@H](C)C(=O)N[C@@H](CCC(=O)O)C(=O)N[C@H](C(=O)N[C@@H](CC(N)=O)C(=O)NC(C)(C)C(=O)N[C@@H](CCC(N)=O)C(=O)N[C@H](C(=O)N[C@@H](CC(C)C)C(=O)N[C@@H](C)C(=O)N[C@@H](CCC(N)=O)C(=O)N[C@H](C(N)=O)C(C)C)[C@@H](C)CC)[C@@H](C)O)[C@@H](C)CC)[C@@H](C)CC)C(C)C)C(C)C
In assay [1], B2 came in with an EC50 [nM] (cAMP) of 0.22 nM.

B3: SEQ ID NO 149 (peptide)
peptide: IVLSLDVPIKLK([AEEA-AEEA-γGlu-C18 diacid])KILLEQEKQKKQREQAETNKQILAQV-NH2
modifications: not fully specified (residue 7); printed as IVLSLDVPIKLK*KILLEQEKQKKQREQAETNKQILAQV-NH2
The molecule B3 came in with an EC50 [nM] (cAMP) in assay [1] of 0.44 nM. Besides, in the assay with CRF1R receptor, the concentration giving a half-maximal response (EC50) was over 250 nM and the “Emax (% I)” value is 4%.

B4: SEQ ID NO 243 (peptide)
peptide: Ac-IVLSLD[dV]PIKLK([γGlu-γGlu-C20 diacid])KILLEQEKQKKQREQAETN[Aib]QILAQV-NH2
SMILES: CC[C@H](C)[C@H](NC(C)=O)C(=O)N[C@H](C(=O)N[C@@H](CC(C)C)C(=O)N[C@@H](CO)C(=O)N[C@@H](CC(C)C)C(=O)N[C@@H](CC(=O)O)C(=O)N[C@@H](C(=O)N1CCC[C@H]1C(=O)N[C@H](C(=O)N[C@@H](CCCCN)C(=O)N[C@@H](CC(C)C)C(=O)N[C@@H](CCCCNC(=O)CC[C@H](NC(=O)CC[C@H](NC(=O)CCCCCCCCCCCCCCCCCCC(=O)O)C(=O)O)C(=O)O)C(=O)N[C@@H](CCCCN)C(=O)N[C@H](C(=O)N[C@@H](CC(C)C)C(=O)N[C@@H](CC(C)C)C(=O)N[C@@H](CCC(=O)O)C(=O)N[C@@H](CCC(N)=O)C(=O)N[C@@H](CCC(=O)O)C(=O)N[C@@H](CCCCN)C(=O)N[C@@H](CCC(N)=O)C(=O)N[C@@H](CCCCN)C(=O)N[C@@H](CCCCN)C(=O)N[C@@H](CCC(N)=O)C(=O)N[C@@H](CCCNC(=N)N)C(=O)N[C@@H](CCC(=O)O)C(=O)N[C@@H](CCC(N)=O)C(=O)N[C@@H](C)C(=O)N[C@@H](CCC(=O)O)C(=O)N[C@H](C(=O)N[C@@H](CC(N)=O)C(=O)NC(C)(C)C(=O)N[C@@H](CCC(N)=O)C(=O)N[C@H](C(=O)N[C@@H](CC(C)C)C(=O)N[C@@H](C)C(=O)N[C@@H](CCC(N)=O)C(=O)N[C@H](C(N)=O)C(C)C)[C@@H](C)CC)[C@@H](C)O)[C@@H](C)CC)[C@@H](C)CC)C(C)C)C(C)C
Take B4: the EC50 [nM] (cAMP) in assay [1] stood at 0.13 nM.

B5: SEQ ID NO 147 (peptide)
peptide: H-IVLSLD[dV]PIKLK([γGlu-γGlu-C16 diacid])QILLKQERQKKQREQAEKNKQILEQV-NH2
SMILES: CC[C@H](C)[C@H](N)C(=O)N[C@H](C(=O)N[C@@H](CC(C)C)C(=O)N[C@@H](CO)C(=O)N[C@@H](CC(C)C)C(=O)N[C@@H](CC(=O)O)C(=O)N[C@@H](C(=O)N1CCC[C@H]1C(=O)N[C@H](C(=O)N[C@@H](CCCCN)C(=O)N[C@@H](CC(C)C)C(=O)N[C@@H](CCCCNC(=O)CC[C@H](NC(=O)CC[C@H](NC(=O)CCCCCCCCCCCCCCC(=O)O)C(=O)O)C(=O)O)C(=O)N[C@@H](CCC(N)=O)C(=O)N[C@H](C(=O)N[C@@H](CC(C)C)C(=O)N[C@@H](CC(C)C)C(=O)N[C@@H](CCCCN)C(=O)N[C@@H](CCC(N)=O)C(=O)N[C@@H](CCC(=O)O)C(=O)N[C@@H](CCCNC(=N)N)C(=O)N[C@@H](CCC(N)=O)C(=O)N[C@@H](CCCCN)C(=O)N[C@@H](CCCCN)C(=O)N[C@@H](CCC(N)=O)C(=O)N[C@@H](CCCNC(=N)N)C(=O)N[C@@H](CCC(=O)O)C(=O)N[C@@H](CCC(N)=O)C(=O)N[C@@H](C)C(=O)N[C@@H](CCC(=O)O)C(=O)N[C@@H](CCCCN)C(=O)N[C@@H](CC(N)=O)C(=O)N[C@@H](CCCCN)C(=O)N[C@@H](CCC(N)=O)C(=O)N[C@H](C(=O)N[C@@H](CC(C)C)C(=O)N[C@@H](CCC(=O)O)C(=O)N[C@@H](CCC(N)=O)C(=O)N[C@H](C(N)=O)C(C)C)[C@@H](C)CC)[C@@H](C)CC)[C@@H](C)CC)C(C)C)C(C)C
Molecule B5 came in with an EC50 [nM] (cAMP) in assay [1] of 0.18 nM.

B6: SEQ ID NO 34 (peptide)
peptide: H-VLSLD[dV]PIKLK([γGlu-C16 diacid])KILLEQEKQKKQREQAETNKQILAQV-NH2
SMILES: CC[C@H](C)[C@H](NC(=O)[C@H](CCC(N)=O)NC(=O)[C@H](CCCCN)NC(=O)[C@H](CC(N)=O)NC(=O)[C@@H](NC(=O)[C@H](CCC(=O)O)NC(=O)[C@H](C)NC(=O)[C@H](CCC(N)=O)NC(=O)[C@H](CCC(=O)O)NC(=O)[C@H](CCCNC(=N)N)NC(=O)[C@H](CCC(N)=O)NC(=O)[C@H](CCCCN)NC(=O)[C@H](CCCCN)NC(=O)[C@H](CCC(N)=O)NC(=O)[C@H](CCCCN)NC(=O)[C@H](CCC(=O)O)NC(=O)[C@H](CCC(N)=O)NC(=O)[C@H](CCC(=O)O)NC(=O)[C@H](CC(C)C)NC(=O)[C@H](CC(C)C)NC(=O)[C@@H](NC(=O)[C@H](CCCCN)NC(=O)[C@H](CCCCNC(=O)CC[C@H](NC(=O)CCCCCCCCCCCCCCC(=O)O)C(=O)O)NC(=O)[C@H](CC(C)C)NC(=O)[C@H](CCCCN)NC(=O)[C@@H](NC(=O)[C@@H]1CCCN1C(=O)[C@H](NC(=O)[C@H](CC(=O)O)NC(=O)[C@H](CC(C)C)NC(=O)[C@H](CO)NC(=O)[C@H](CC(C)C)NC(=O)[C@@H](N)C(C)C)C(C)C)[C@@H](C)CC)[C@@H](C)CC)[C@@H](C)O)C(=O)N[C@@H](CC(C)C)C(=O)N[C@@H](C)C(=O)N[C@@H](CCC(N)=O)C(=O)N[C@H](C(N)=O)C(C)C
For B6, the EC50 [nM] (cAMP) in assay [1] is 1.61 nM.

B7: SEQ ID NO 244 (peptide)
peptide: Ac-IVLSLD[dV]PIKLK([γGlu-γGlu-C20 diacid])KILLEQEKQKAQREQAETN[Aib]QILAQV-NH2
SMILES: CC[C@H](C)[C@H](NC(C)=O)C(=O)N[C@H](C(=O)N[C@@H](CC(C)C)C(=O)N[C@@H](CO)C(=O)N[C@@H](CC(C)C)C(=O)N[C@@H](CC(=O)O)C(=O)N[C@@H](C(=O)N1CCC[C@H]1C(=O)N[C@H](C(=O)N[C@@H](CCCCN)C(=O)N[C@@H](CC(C)C)C(=O)N[C@@H](CCCCNC(=O)CC[C@H](NC(=O)CC[C@H](NC(=O)CCCCCCCCCCCCCCCCCCC(=O)O)C(=O)O)C(=O)O)C(=O)N[C@@H](CCCCN)C(=O)N[C@H](C(=O)N[C@@H](CC(C)C)C(=O)N[C@@H](CC(C)C)C(=O)N[C@@H](CCC(=O)O)C(=O)N[C@@H](CCC(N)=O)C(=O)N[C@@H](CCC(=O)O)C(=O)N[C@@H](CCCCN)C(=O)N[C@@H](CCC(N)=O)C(=O)N[C@@H](CCCCN)C(=O)N[C@@H](C)C(=O)N[C@@H](CCC(N)=O)C(=O)N[C@@H](CCCNC(=N)N)C(=O)N[C@@H](CCC(=O)O)C(=O)N[C@@H](CCC(N)=O)C(=O)N[C@@H](C)C(=O)N[C@@H](CCC(=O)O)C(=O)N[C@H](C(=O)N[C@@H](CC(N)=O)C(=O)NC(C)(C)C(=O)N[C@@H](CCC(N)=O)C(=O)N[C@H](C(=O)N[C@@H](CC(C)C)C(=O)N[C@@H](C)C(=O)N[C@@H](CCC(N)=O)C(=O)N[C@H](C(N)=O)C(C)C)[C@@H](C)CC)[C@@H](C)O)[C@@H](C)CC)[C@@H](C)CC)C(C)C)C(C)C
For B7, the EC50 [nM] (cAMP) in assay [1] was determined as 0.28 nM.

A word on the EC50: it is the concentration giving half of the maximal effect. Low values mean greater potency, high ones weaker potency.
